This note sets out measurements from publication PMC5688128, “Structural basis for tRNA-dependent cysteine biosynthesis” (Nature Communications, 2017).

First the molecules themselves.
B5: O-phosphoseryl-tRNA synthetase (SepRS), Methanocaldococcus jannaschii (enzyme)
chain: MRFDIKKVLELAEKDFETAWRETRALIKDKHIDNKYPRLKPVYGKPHPVMETIERLRQAYLRMGFEEMINPVIVDEMEIYKQFGPEAMAVLDRCFYLAGLPRPDVGLGNEKVEIIKNLGIDIDEEKKERLREVLHLYKKGAIDGDDLVFEIAKALNVSNEMGLKVLETAFPEFKDLKPESTTLTLRSHMTSGWFITLSSLIKKRKLPLKLFSIDRCFRREQREDRSHLMSYHSASCVVVGEDVSVDDGKVVAEGLLAQFGFTKFKFKPDEKKSKYYTPETQTEVYAYHPKLGEWIEVATFGVYSPIALAKYNIDVPVMNLGLGVERLAMIIYGYEDVRAMVYPQFYEYRLSDRDIAGMIRVDKVPILDEFYNFANELIDICIANKDKESPCSVEVKREFNFNGERRVIKVEIFENEPNKKLLGPSVLNEVYVYDGNIYGIPPTFEGVKEQYIPILKKAKEEGVSTNIRYIDGIIYKLVAKIEEALVSNVDEFKFRVPIVRSLSDINLKIDELALKQIMGENKVIDVRGPVFLNAKVEIK
notes: O-phosphoseryl-tRNA synthetase (SepRS) of Methanocaldococcus jannaschii; wild type; source: E. coli B834(DE3) plus pRARE2, purified (heat treatment 75 °C, HisTrap, Heparin, Superdex 200)

Series [1] addresses T1, SepRS (SepRS-SepCysE-SepCysS ternary complex, transsulfursome) (Methanocaldococcus jannaschii, UniProt Q59054).
T1 construct: gene sepS; recombinant from E. coli B834(DE3), pET-15b; SepRS tetramer; only SepRS and SepCysE N-helix (Met1-Lys24) visible; with SepRS/SepCysS pathway enhancer SepCysE; O-phospho-L-seryl-tRNA:Cys-tRNA synthase
The series is described as follows: X-ray crystal structure, […] Å. It counts as binding. The settings on record: 10 mM ATP in crystallisation, pH 7.0; active site, Arg228, Glu230, His237, Tyr240; bent ATP.

The target in series [2] is T2, SepCysS (SepCysE-SepCysS-tRNA^Cys complex) (Methanocaldococcus jannaschii, UniProt Q59072).
T2 construct: gene pscS; recombinant, coexpressed with SepCysE in E. coli B834(DE3); SepCysS homodimer; co-crystal with tRNA^Cys; with SepRS/SepCysS pathway enhancer SepCysE
T2 sequence (Q59072 whole entry, one chain of several): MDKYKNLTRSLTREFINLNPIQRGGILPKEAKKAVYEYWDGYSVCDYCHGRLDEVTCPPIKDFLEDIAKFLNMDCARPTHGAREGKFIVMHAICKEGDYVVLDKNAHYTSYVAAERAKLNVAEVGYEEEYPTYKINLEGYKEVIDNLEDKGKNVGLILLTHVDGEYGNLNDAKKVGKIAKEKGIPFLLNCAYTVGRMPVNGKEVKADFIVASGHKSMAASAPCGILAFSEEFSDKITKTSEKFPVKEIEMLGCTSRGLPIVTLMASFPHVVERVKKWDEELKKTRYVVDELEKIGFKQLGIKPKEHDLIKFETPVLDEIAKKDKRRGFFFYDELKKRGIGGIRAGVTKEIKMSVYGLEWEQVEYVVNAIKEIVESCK
Kind of series: X-ray crystal structure, […] Å. It counts as binding. The conditions noted are these: covalent; Lys234; crystallised at pH 5.0 with tRNA^Cys.

For series [3], the target named is B5. The series is described as follows: negative stain electron microscopy; purified wild type and del_linker1 transsulfursome adsorbed on carbon-coated grids; 20 mM HEPES-KOH pH 8.0, 200 mM KCl, 5 mM MgCl2; uranyl formate; class averaging. The conditions noted are these: both partners purified.
Series [4] concerns the molecule itself. The series is described as follows: crystal structure; SepCysE-SepCysS mixed with tRNA^Cys at a molar ratio of 1:1.2, protein 16 mg/ml; 0.1 M MES pH 5.0, 2.4 M ammonium sulfate; 2.6 Å; PDB 5X6B.
Series [5] has as its target B5. The series is described as follows: SEC-SAXS; SepCysE(CTD)-truncated transsulfursome in solution; Superdex 200 Increase 10/300 GL, room temperature; scattering compared with models from the crystal structures. The conditions noted are these: both partners purified. A general note: SEC sorts molecules by how far they enter the pores of the column.
Series [6] deals with the molecule itself. Kind of series: crystal structure; 50 μM SepRS-SepCysE-SepCysS(del_RRF), 30 μM tRNA^Cys, 10 mM ATP; 0.1 M Tris-HCl pH 7.0, 0.3 M ammonium sulfate, 36% MPD; 3.10 Å; only SepRS and the N-helix of SepCysE visible; PDB 5X6C.

Turning to `Nc1ncnc2c1ncn2[C@@H]1O[C@H](COP(=O)(O)OP(=O)(O)OP(=O)(O)O)[C@@H](O)[C@H]1O` [ATP], in series [1], the “X-ray crystal structure, 3.1 Å” value is recorded as “ATP was observed in the active sites of SepRS”.
On to `Cc1ncc(COP(=O)(O)O)c(C=O)c1O` [pyridoxal-5′-phosphate], for which the “X-ray crystal structure, 2.6 Å” value in series [2] was “PLP was covalently bound to the side chain of the conserved Lys234”.

B1: SepCysE (SepRS/SepCysS pathway enhancer), Methanocaldococcus jannaschii (natural protein)
chain: MRVEYSKDLIRKGISTISQLKKAKIRVEKDDKKISYKDAKPGKIDVNEFKKAIYLLIEADDFLYKKAPKHELNEEEAKEFCKLIIKCQEHLNKILANFGFEFEEKEIDEGALYIVSNKKLFKKLKNKNPNLKVVCTEGMLDIEDMRAIGVPEKALEGLKKKVEIARKNVERFIEKYKPEKIFVVVEDDKDELLYLRAKNLYNAEKLDADEILD
notes: SepCysE of Methanocaldococcus jannaschii; wild type
As a reminder, the stoichiometry N is the number of molecules, sites or subunits per partner or assembly. For B1, in series [3], the binding result is “binds”. Moreover, in series [4], the “stoichiometry N” value worked out at 2.

B2: SepCysE(del_linker1) of M. jannaschii, 10 residues of linker1 truncated (natural protein, Methanocaldococcus jannaschii)
chain: MRVEYSKDLIRKGISTISQLKKAKSYKDAKPGKIDVNEFKKAIYLLIEADDFLYKKAPKHELNEEEAKEFCKLIIKCQEHLNKILANFGFEFEEKEIDEGALYIVSNKKLFKKLKNKNPNLKVVCTEGMLDIEDMRAIGVPEKALEGLKKKVEIARKNVERFIEKYKPEKIFVVVEDDKDELLYLRAKNLYNAEKLDADEILD
notes: source: E. coli B834(DE3) plus pRARE2, purified within the transsulfursome (same procedure as the wild type)
Turning to B2, the binding result in series [3] is reported as “binds”.

B3: CTD-truncated SepCysE of M. jannaschii (domain or fragment, Methanocaldococcus jannaschii, UniProt Q58876 1-110, looked up)
chain: MRVEYSKDLIRKGISTISQLKKAKIRVEKDDKKISYKDAKPGKIDVNEFKKAIYLLIEADDFLYKKAPKHELNEEEAKEFCKLIIKCQEHLNKILANFGFEFEEKEIDEG
notes: also called SepCysE(CTD)-truncated; source: E. coli B834(DE3) plus pRARE2, purified within the transsulfursome (same procedure as the wild type)
Regarding B3, in series [5], the binding result was “binds”.

B4: Sep-tRNA:Cys-tRNA synthase (SepCysS), Methanocaldococcus jannaschii (enzyme)
chain: DKYKNLTRSLTREFINLNPIQRGGILPKEAKKAVYEYWDGYSVCDYCHGRLDEVTCPPIKDFLEDIAKFLNMDCARPTHGAREGKFIVMHAICKEGDYVVLDKNAHYTSYVAAERAKLNVAEVGYEEEYPTYKINLEGYKEVIDNLEDKGKNVGLILLTHVDGEYGNLNDAKKVGKIAKEKGIPFLLNCAYTVGRMPVNGKEVKADFIVASGHKSMAASAPCGILAFSEEFSDKITKTSEKFPVKEIEMLGCTSRGLPIVTLMASFPHVVERVKKWDEELKKTRYVVDELEKIGFKQLGIKPKEHDLIKFETPVLDEIAKKDKRRGFFFYDELKKRGIGGIRAGVTKEIKMSVYGLEWEQVEYVVNAIKEIVESCK
modifications: PLP covalently bound to the side chain of Lys234
notes: Sep-tRNA:Cys-tRNA synthase (SepCysS) of Methanocaldococcus jannaschii; wild type; large domain Gly43-Lys295, small domain Trp296-Lys396; Homodimer
Take B4: the “stoichiometry N” value in series [4] amounted to 2.
For B5, the “stoichiometry N” value in series [6] worked out at 4.
